Results as given in a protein production outcome set (Wang et al. 2014).

Assay: label from the status in PepcDB records
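Further: failed if final PepcDB status was selected cloned or expressed and not failed if soluble or beyond.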

| Sequence | protein production |
| --- | --- |
| MAELNFKAIEEKWQKRWLEAKIFEPNIRDKPKEKKFYITVAFPYLSGHLHVGHARTYTIPDVIARFKRMQGYNVLFPMAWHITGSPIVGIAERIKNRDPKTIWIYRDVYKVPEEILWTFEDPINIVKYFMKAAKETFIRAGFSVDWSREFYTTSLFPPFSKFIEWQFWKLKEKGYIVKGAHRVRWDPVVGTPLGDHDLMEGEDVPILDYIIIKFELRENGEVIYLPAATLRPETVYGVTNMWVNPNATYVKAKVRRKDKEETWIVSKEAAYKLSFQDREIEVIEEFKGEKLIGKYVRNPVSGDEVIILPAEFVDPDNATGVVMSVPAHAPFDHVALEDLKRETEILEKYDIDPRIVENITYISLIKLEGYGDFPAVEEVNKLGIKSQKDKEKLEQATKTIYKAEYHKGIFKVPPYEGKPVQEVKEAIAKEMLEKGIAEIMYEFAEKNVISRFGNRAVIKIIHDQWFIDYGNPEWKEKARKALERMKILPETRRAQFEAIIDWLDKKACARKIGLGTPLPWDPEWVIESLSDSTIYMAYYTISRHINKLRQEGKLDPEKLTPEFFDYIFLEEFSEDKEKELEKKTGIPAEIIHEMKEEFEYWYPLDWRCSGKDLIPNHLTFFIFNHVAIFREEHWPKGIAVNGFGTLEGQKMSKSKGNVLNFIDAIEENGADVVRLYIMSLAEHDSDFDWRRKEVGKLRKQIERFYELISQFAEYEVKGNVELKDIDRWMLHRLNKAIKETTNALEEFRTRTAVQWAFYSIMNDLRWYLRRTEGRDDEAKRYVLRTLADVWVRLMAPFTPHICEELWEKLGGEGFVSLAKWPEPVEEWWNETIEAEEEFIRSVMEDIKEIIEVAKIENAKRAYIYTAEDWKWKVAEVVSEKRDFKSSMEELMKDSEIRKHGKEVAKIVQKLIKERTFDVKRINEEKALREAKEFMEKELGIEIIINPTEDKGGKKKQAMPLKPAIFIE | not failed |
| VATLYNDLKNKQTSVVEPKKPLPETWKNMHPCMVLNYMRPQCTFIVSGGTGTNQNNTFSMSVCVDNCEFNAEGPSKKAARYKLSALVCNKLFGTDYPQK | failed |
| MPIKKNSHVKTTEMNKYPVLQLKRDPEAIHHYLNGEIRILVPTEYQRIKNEISQKRHRTLFDVLMITGMRYVEVQRLWDHKEWYLKKKNIIHLPEEAQKKHKRTQQERTIHPLPGMFELLLDDFFEARKPPAESNWNRDLRKWAKDAGLNPYGLSAKTTRKTLESWCIAAGMLESTVCLRQGHDNLTSMKHYQGLAFSADELKDIEKQLTVWGMLK | failed |
| MAESTRIGQESRVTLHFALKLEDGNVVDSTFDKQPASFKVGDGNLLPGFEQALFGLKAGDKRTLSILPEQGFGQPNPQNVQIMPRDQFQDMELAEGLLVIFNDAAKTELPGVVKAFDEQQVTVDFNHPLAGKTLAFEVEIIDVQPA | failed |
| MRNHKQSDRVLNLPAGYFGIVLGTIGMGFAWRYASQIWGISHWPGDIMVILAMIIWALLTLAFLSRLVRFPHSVMAEVRHPVMSSFVSLFPATTMLVAIGFVPWYRPLAVALFSVGVVIQLAYAAWQTAGLWRGAHPEEATTPGLYLPTVANNFISAMACGALGYNDAGLVFLGAGVFSWLSLEPVILQRLRSCGELPAVLRTSLGIQLAPALVACSAWLSVNGGEGDTLAKMLFGYGLLQLLFMLRLMPWYLSQPFNASFWSFSFGVSALATTGLHLGHGSESGLFHILAVPLFIFTNAIIALLLVRTFLLLVQGTLLIRTERAALLKTEEKNDRS | failed |
| MDPRKVNELRAFVKMCKQDPSVLHTEEMRFLREWVESMGGKVPPATQKAKSEENTKEEKPDSKKVEEDLKADEPSSEESDLEIDKEGVIEPDTDAPQEMGDENAEITEEMMDQANDKKVAAIEALNDGELQKAIDLFTDAIKLNPRLAILYAKRASVFVKLQKPNAAIRDCDRAIEINPDSAQPYKWRGKAHRLLGHWEEAAHDLALACKLDYDEDASAMLKEVQPRAQKIAEHRRKYERKREEREIKERIERVKKAREEHERAQREEEARRQSGAQYGSFPGGFPGGMPGNFPGGMPGMGGGMPGMAGMPGLNEILSDPEVLAAMQDPEVMVAFQDVAQNPANMSKYQSNPKVMNLISKLSAKFGGQA | failed |
| MTATEPTEKILPSPDYVQSLARGLAVIRCFDHRNQRRTLSDVARATDLTRATARRFLLTLVELGYVATDGSAFWLTPRVLELGYSYLSSLSLPEVAQPHLEKLSHKVHESSSVSILDGADIVYVARVPVSRIMTVGITIGTRLPAYATSMGRVLLAGLPDDELDAYLEKLDIQRLTERTITARDELKAAILAVRADGICVLDQELEAGLRSMAAPIRGASGLTVAAVNISTPAARYSLEDLHSDLIPSLRVTATDIEQDLATVNR | not failed |
| MNSRAADQLELDGLPGTPPDFYRERQRSRVERYQSPAGAPLQCSVQVQTTQEHPLWTSHVWSGARALADTLCWQPELIAGKTVCELGAGAGLVSIVAFLAGADQVVATDYPDPEILNSLESNIREHTANSCSSETVKRASPKVVPYRWGDSPDSLQRCTGLQRFQVVLLADLLSFHQAHDALLRSVKMLLALPANDPTAVALVTFTHHRPHLAERDLAFFRLVNADGALIAEPWLSPLQMDPMFPDDPGDVCIRGQVHRWRLRWRSAASASANIPAHARNE | not failed |
| MHALPGIRTLFLGMPSSTRSPETAVPRILTSRTDVTERSEHNALMFGSPKERWDFYRREIQYDTSILANRTDAYLAAQSFLVIAFASSMSNLNPEWGGLFTLLVPPFLALLCILTTLNAWPGIRAAYDIIDQWYFKQVQLLLAYDESPLFCESESTHKSYRKSLPFSLRAP | failed |
| MTYFLYGNNFSSSILDTISYIIDWIIINMEPITLTLCLLVFAIVMFVWEKVPLAVTSMIVCVALVITGVLNIKQAFAGFIDTNVILFVAMFIVGGALFETGMANKVGGVITRFAKTEKQLIFTIMVVVGLMSGVLSNTGTAAVLIPVVIGVAAKSGFSRSRLLMPLVFAAALGGNLSLIGAPGNLIAQSALQNIGGGFGFFEYAKIGLPMLICGILYFLTIGYRFLPNNATGGEVGSVGEQRDYSHVPQWKQRLSLVVLIATILGMIFEKKIGVSLAVTGCIGALVLVVSGVLTEKQAYKAIDSQTIFIFGGTLALAKALEMTGAGKLVADYVIGMLGQNSSPFMLLIAVFALSVVMTNFMSNTATTALLVPVSLSIAAGMGADPRAVLMATVIGGSCAYATPIGMPANMMVLSAGGYKFVDYAKAGIPLIIVSTIVSLILLPILFPFHP | failed |
| MKVDVDEKTYIITMANDITKLYEENKRNLHYSITDPLTGAYNRKYLNDRFDIFIGDYIVLIDLDNFKMINDYEGHNVGDKILCDFVSLLNKELINSTSIIRLGGDEFIVIFSSDVDKNYVYSQLEALRENFLKVFSKYKYLSFSYGVDTVKRNLKLTIVELDKKMYKNKEKLEHHHHHH | failed |
| MKTDTEWLLCDFHVHTNMSDGHLPLGEVVDLFGKHGVDVVSITDHIVDRRTLEQRKRNGEPLGAITEDKFQDYLKRLWREQKRAWEEYGMILIPGVEITNNTDLYHIVAVDVKEYVDPSLPVEEIVEKLKEQNALVIAAHPDRKKQDEEHLSWYLWANMERFKDTFDAWEIANRDDLFNSVGVKKYRYVANSDFHELWHVYSWKTLVKSEKNIEAIKEAIRKNTDVAIYLMRKNRLSSLSDVI | not failed |
| MITVVGTGTGAPLSADAARALAGAGLVVGGRRHLAAAALPDGAERIVLGPLAPALDAIEAALEKQRRVVVLASGDPGFFGIVRALAERFGAERLDVRPGVSSVATAFARLGLPWDDAVVVSAHGRDLRTALNVCRSRPKVAVLTGPGAGPAELGAALAHGFGARVLVVASALGDPEHERVERVTPAEAAARDWGTAVSVVLCLDASRALAPVRTVAGPPAGPARWALEEGDFAHRDSMITKFEVRALALARLGPRLGDLVWDVGAGSGSVAVECARLGAAVTAVEKTLDGVERIHANARAHGVDVHVVHGAAPDALTALPDPDAVFIGGGGRELPALVTACARRARRTVVVAMAALDRVPAVREALTGAGFGCDGVLLQSSRLAPLPGDVTRLAATNPVFLLWGARPPARTEGALQ | failed |
| IVAQGEDFVVSGALNLSLIRERTGFQAKATEDYQTLAGLVMSLLDRLPSTGDSLSWQGWNLQVVGVEERRVTRVLLQKQPAASAGK | failed |
| MLSRILEKYRENGIQGIVLALISRFPGVRAVCVYYVYRLPFDKLVRKQLSVGNLKVVQVKSDSMGDLIRVQDKPDIFGERFQMGHYGFVAYVNNDPVAYLWGQEGPVHVERRFGFEVPIKDNQVFYYDSYTIPEWRKSGVGRALIQESIDFFKNGLGKSELIAIIETGNLVSQKTYERMGFVREAMHIHLDIIGKKINKQLARMVTQ | failed |
